This is an account of results in patent US20140220596A1 (MEDICINAL BIOCONVERGENCE RESEARCH CENTER, published 2014).

Sequences and labels used below:
B1: CDH1 (Fc fusion, not shown: a dimerising Fc or GST; small tags and cut ends)
chain: DWVIPPISCPENEKGPFPKNLVQIKSNKDKEGKVFYSITGQGADTPPVGVFIIERETGWLKVTEPLDRERIATYTLFSHAVSSNGNAVEDPMEILITVTDQNDNKPEFTQEVFKGSVMEGALPGTSVMEVTATDADDDVNTYNAAIAYTILSQDPELPDKNMFTINRNTGVISVVTTGLDRESFPTYTLVVQAADLQGEGLSTTATAVITVTDTNDNPPIFNPTTYKGQVPENEANVVITTLKVTDADAPNTPAWEAVYTILNDDGGQFVVTTNPVNNDGILKTAKGLDFEAKQQYILHVAVTNVVPFEVSLTTSTATVTVDVLDVNEAPIFVPPEKRVEVSEDFGVGQEITSYTAQEPDTFMEQKITYRIWRDTANWLEINPDTGAISTRAELDREDFEHVKNSTYTALIIATDNGSPVATGTGTLLLILSDVNDNAPIPEPRTIFFCERNPKPQVINIIDADLPPNTSPFTAELTHGASANWTIQYNDPTQESIILKPKMALEVGDYKINLKLMDNQNKDQVTTLEVSVCDCEGAAGVCRKAQPVEAGLQIPA
notes: one of the remaining CDHs (group m5); also called Fc-CDH1; Fc-fused soluble cadherin-1
B2: CDH16 (Fc fusion, not shown: a dimerising Fc or GST; small tags and cut ends)
chain: KAQPAELSVEVPENYGGNFPLYLTKLPLPREGAEGQIVLSGDSGKATEGPFAMDPDSGFLLVTRALDREEQAEYQLQVTLEMQDGHVLWGPQPVLVHVKDENDQVPHFSQAIYRARLSRGTRPGIPFLFLEASDRDEPGTANSDLRFHILSQAPAQPSPDMFQLEPRLGALALSPKGSTSLDHALERTYQLLVQVKDMGDQASGHQATATVEVSIIESTWVSLEPIHLAENLKVLYPHHMAQVHWSGGDVHYHLESHPPGPFEVNAEGNLYVTRELDREAQAEYLLQVRAQNSHGEDYAAPLELHVLVMDENDNVPICPPRDPTVSIPELSPPGTEVTRLSAEDADAPGSPNSHVVYQLLSPEPEDGVEGRAFQVDPTSGSVTLGVLPLRAGQNILLLVLAMDLAGAEGGFSSTCEVEVAVTDINDHAPEFITSQIGPISLPEDVEPGTLVAMLTAIDADLEPAFRLMDFAIERGDTEGTFGLDWEPDSGHVRLRLCKNLSYEAAPSHEVVVVVQSVAKLVGPGPGPGATATVTVLVERVMPPPKLDQESYEASVPISAPAGSFLLTIQPSDPISRTLRFSLVNDSEGWLCIEKFSGEVHTAQSLQGAQPGDTYTVLVEAQDTDEPRLSASAPLVIHFLKAPPAPALTLAPVPSQYLCTPRQDHGLIVSGPSKDPDLASGHGPYSFTLGPNPTVQRDWRLQTLNGSHAYLTLALHWVEPREHIIPVVVSHNAQMWQLLVRVIVCRCNVEGQCMRKVGRMKGMPTKLSA
notes: one of the remaining CDHs (group m5); also called Fc-CDH16; Fc-fused soluble cadherin-16
B3: CDH13 (Fc fusion, not shown: a dimerising Fc or GST; small tags and cut ends)
chain: SIVVSPILIPENQRQPFPRDVGKVVDSDRPERSKFRLTGKGVDQEPKGIFRINENTGSVSVTRTLDREVIAVYQLFVETTDVNGKTLEGPVPLEVIVIDQNDNRPIFREGPYIGHVMEGSPTGTTVMRMTAFDADDPATDNALLRYNIRQQTPDKPSPNMFYIDPEKGDIVTVVSPALLDRETLENPKYELIIEAQDMAGLDVGLTGTATATIMIDDKNDHSPKFTKKEFQATVEEGAVGVIVNLTVEDKDDPTTGAWRAAYTIINGNPGQSFEIHTNPQTNEGMLSVVKPLDYEISAFHTLLIKVENEDPLVPDVSYGPSSTATVHITVLDVNEGPVFYPDPMMVTRQEDLSVGSVLLTVNATDPDSLQHQTIRYSVYKDPAGWLNINPINGTVDTTAVLDRESPFVDNSVYTALFLAIDSGNPPATGTGTLLITLEDVNDNAPFIYPTVAEVCDDAKNLSVVILGASDKDLHPNTDPFKFEIHKQAVPDKVWKISKINNTHALVSLLQNLNKANYNLPIMVTDSGKPPMTNITDLRVQVCSCRNSKVDCNAAG
notes: one of the remaining CDHs (group m5); also called Fc-CDH13; Fc-fused soluble cadherin-13
B4: CDH11 (Fc fusion, not shown: a dimerising Fc or GST; small tags and cut ends)
chain: GWVWNQFFVIEEYTGPDPVLVGRLHSDIDSGDGNIKYILSGEGAGTIFVIDDKSGNIHATKTLDREERAQYTLMAQAVDRDTNRPLEPPSEFIVKVQDINDNPPEFLHETYHANVPERSNVGTSVIQVTASDADDPTYGNSAKLVYSILEGQPYFSVEAQTGIIRTALPNMDREAKEEYHVVIQAKDMGGHMGGLSGTTKVTITLTDVNDNPPKFPQSVYQMSVSEAAVPGEEVGRVKAKDPDIGENGLVTYNIVDGDGMESFEITTDYETQEGVIKLKKPVDFETKRAYSLKVEAANVHIDPKFISNGPFKDTVTVKISVEDADEPPMFLAPSYIHEVQENAAAGTVVGRVHAKDPDAANSPIRYSIDRHTDLDRFFTINPEDGFIKTTKPLDREETAWLNITVFAAEIHNRHQEAKVPVAIRVLDVNDNAPKFAAPYEGFICESDQTKPLSNQPIVTISADDKDDTANGPRFIFSLPPEIIHNPNFTVRDNRDNTAGVYARRGGFSRQKQDLYLLPIVISDGGIPPMSSTNTLTIKVCGCDVNGALLSCNAEAYILNAGLST
notes: one of the remaining CDHs (group m5); also called Fc-CDH11; Fc-fused soluble cadherin-11
B5: CDH8 (Fc fusion, not shown: a dimerising Fc or GST; small tags and cut ends)
chain: GWVWNQMFVLEEFSGPEPILVGRLHTDLDPGSKKIKYILSGDGAGTIFQINDVTGDIHAIKRLDREEKAEYTLTAQAVDWETSKPLEPPSEFIIKVQDINDNAPEFLNGPYHATVPEMSILGTSVTNVTATDADDPVYGNSAKLVYSILEGQPYFSIEPETAIIKTALPNMDREAKEEYLVVIQAKDMGGHSGGLSGTTTLTVTLTDVNDNPPKFAQSLYHFSVPEDVVLGTAIGRVKANDQDIGENAQSSYDIIDGDGTALFEITSDAQAQDGIIRLRKPLDFETKKSYTLKVEAANVHIDPRFSGRGPFKDTATVKIVVEDADEPPVFSSPTYLLEVHENAALNSVIGQVTARDPDITSSPIRFSIDRHTDLERQFNINADDGKITLATPLDRELSVWHNITIIATEIRNHSQISRVPVAIKVLDVNDNAPEFASEYEAFLCENGKPGQVIQTVSAMDKDDPKNGHYFLYSLLPEMVNNPNFTIKKNEDNSLSILAKHNGFNRQKQEVYLLPIIISDSGNPPLSSTSTLTIRVCGCSNDGVVQSCNVEAYVLPIGLSM
notes: one of the remaining CDHs (group m5); also called Fc-CDH8; Fc-fused soluble cadherin-8
B6: CDH5 (Fc fusion, not shown: a dimerising Fc or GST; small tags and cut ends)
chain: DWIWNQMHIDEEKNTSLPHHVGKIKSSVSRKNAKYLLKGEYVGKVFRVDAETGDVFAIERLDRENISEYHLTAVIVDKDTGENLETPSSFTIKVHDVNDNWPVFTHRLFNASVPESSAVGTSVISVTAVDADDPTVGDHASVMYQILKGKEYFAIDNSGRIITITKSLDREKQARYEIVVEARDAQGLRGDSGTATVLVTLQDINDNFPFFTQTKYTFVVPEDTRVGTSVGSLFVEDPDEPQNRMTKYSILRGDYQDAFTIETNPAHNEGIIKPMKPLDYEYIQQYSFIVEATDPTIDLRYMSPPAGNRAQVIINITDVDEPPIFQQPFYHFQLKENQKKPLIGTVLAMDPDAARHSIGYSIRRTSDKGQFFRVTKKGDIYNEKELDREVYPWYNLTVEAKELDSTGTPTGKESIVQVHIEVLDENDNAPEFAKPYQPKVCENAVHGQLVLQISAIDKDITPRNVKFKFILNTENNFTLTDNHDNTANITVKYGQFDREHTKVHFLPVVISDNGMPSRTGTSTLTVAVCKCNEQGEFTFCEDMAAQVGVSIQ
notes: one of the remaining CDHs (group m5); also called Fc-CDH5; Fc-fused soluble cadherin-5
B7: CDH20 (Fc fusion, not shown: a dimerising Fc or GST; small tags and cut ends)
chain: SWVWNQFFVLEEYTGTDPLYVGKLHSDMDRGDGSIKYILSGEGAGIVFTIDDTTGDIHAIQRLDREERAQYTLRAQALDRRTGRPMEPESEFIIKIQDINDNEPKFLDGPYVATVPEMSPVGTSVIQVTATDADDPTYGNSARVVYSILQGQPYFSVDSKTGVIRTALMNMDREAKEYYEVIIQAKDMGGQLGGLAGTTTVNITLSDVNDNPPRFPQKHYQMSVLESAPISSTVGRVFAKDLDEGINAEMKYTIVDGDGADAFDISTDPNFQVGIITVKKPLSFESKKSYTLKVEGANPHLEMRFLNLGPFQDTTTVHISVEDVDEPPVFEPGFYFVEVPEDVAIGTTIQIISAKDPDVTNNSIRYSIDRSSDPGRFFYVDITTGALMTARPLDREEFSWHNITVLAMEMNNPSQVGSVPVTIKVLDVNDNAPEFPRFYEAFVCENAKAGQLIQTVSAVDQDDPRNGQHFYYSLAPEAANNPNFTIRDNQDNTARILTRRSGFRQQEQSVFHLPILIADSGQPVLSSTGTLTIQVCSCDDDGHVMSCSPEAYMLPVSLSR
notes: one of the remaining CDHs (group m5); also called Fc-CDH20; Fc-fused soluble cadherin-20

This test deals with T1, His-tagged recombinant human glycyl-tRNA synthetase (GRS), 685 amino acids (human, UniProt P41250 55-739).
T1 construct: Expressed in E. coli; also called His-GRS; his-tagged GRS; not shown: His tag from vector pET-28a (EcoRI/XhoI)
T1 sequence: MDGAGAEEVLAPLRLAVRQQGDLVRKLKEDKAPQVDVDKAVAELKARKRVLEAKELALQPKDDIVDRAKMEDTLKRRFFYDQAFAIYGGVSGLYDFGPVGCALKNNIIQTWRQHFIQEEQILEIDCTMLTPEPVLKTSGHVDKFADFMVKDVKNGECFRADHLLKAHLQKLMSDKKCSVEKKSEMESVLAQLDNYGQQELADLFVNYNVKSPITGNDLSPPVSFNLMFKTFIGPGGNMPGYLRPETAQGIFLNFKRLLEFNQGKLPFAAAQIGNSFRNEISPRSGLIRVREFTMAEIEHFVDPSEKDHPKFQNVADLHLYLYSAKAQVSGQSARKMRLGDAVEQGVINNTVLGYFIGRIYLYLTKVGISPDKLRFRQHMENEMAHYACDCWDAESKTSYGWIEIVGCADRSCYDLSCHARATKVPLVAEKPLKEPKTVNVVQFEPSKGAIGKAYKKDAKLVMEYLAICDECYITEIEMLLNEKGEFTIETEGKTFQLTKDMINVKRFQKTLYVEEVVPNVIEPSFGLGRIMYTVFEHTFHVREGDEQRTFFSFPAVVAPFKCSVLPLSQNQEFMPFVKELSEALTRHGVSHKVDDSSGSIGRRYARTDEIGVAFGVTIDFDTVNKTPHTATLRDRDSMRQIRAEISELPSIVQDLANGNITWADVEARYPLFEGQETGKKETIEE
Briefly: ELISA: plate coated with His-GRS or BSA, Fc-fused cadherin added, detected with anti-human IgG1 Fc-HRP; axis OD 490nm. On the procedure: (A) A panel of Fc-fused soluble cadherin family proteins was bound to His-tagged GRS or to BSA-coated plates, and complexes were detected with the IgG1 Fc-HRP (Thermo) reagent. (B) To confirm the binding between cadherins and GRS, Fc-CDH2, 6 and 18 were incubated with His-GRS. Fc-CDHs were precipitated with protein A/G agarose and co-precipitated GRS was determined by immunoblotting. (C) To calculate the equilibrium dissociation constant (IQ), immobilized Fc-fused (to gold chips) cadherins were incubated with GRS (31.25 nM˜1 uM). Binding of GRS to CDH6 was determined by surface plasmon resonance and expressed as resonance units (RU). (D) To confirm the binding between CDH6 and GRS domain peptides, Fc-CDH6 was incubated with different domains (F1, 2, 3 and 4) of GRS that were expressed as the GST fusion proteins. GST-GRS proteins were precipitated with GSH-sepharose beads and co-precipitated CDH6 was determined by immunoblotting. (E) Five difference cancers cells were determined for the expression of CDH6 by immunoblotting. (F) HCT116 cells were transfected with non-specific siRNA controls (si-con) or two differently designed siRNAs targeting CDH6 (#1 and #2), treated with biotinylated GRS (15 nM), and the binding of GRS was analyzed by immunoblotting. (G) HCT116 cells were transfected with si-con and si-CDH6 as described above, and cell binding of GRS was measured by FACS analysis. (H) HCT116 cells were incubated with His-GRS (150 nM). To neutralize the effects of GRS, Fc-fused CDH6 (300 nM) was added and the cell viability was determined by the MTT assay. Error bars represent standard deviation. (I) The binding between CDH6 and GRS domain peptides was again confirmed by ELISA assay.
To identifying the receptor of GRS, a Maxisorp plate (Nunc, Rochester, N.Y.) was used for an ELISA detection. The plate were coated with purified his-tagged GRS (1 ug/ml) or BSA (1 ug/ml) in phosphate buffer saline and then blocked (PBS, 4% non-fat milk). Fc-fusion cadherin family proteins (1 ug/ml) were added to the plate and after washing with PBST (0.05% Tween20), the plates were incubated with anti-human IgG1 Fc-HRP (Thermo, Waltham, Mass.). […]
A general note: ELISA stands for enzyme-linked immunosorbent assay.
As for B1, the binding result is recorded as “no binding (tested: 1 ug/ml (single concentration))”. Next, B2: “no binding (tested: 1 ug/ml (single concentration))”; B3: “no binding (tested: 1 ug/ml (single concentration))”; B4: “no binding (tested: 1 ug/ml (single concentration))”. In the case of B5 it was “no binding (tested: 1 ug/ml (single concentration))”. Regarding B6, the binding result is on record as “no binding (tested: 1 ug/ml (single concentration))”. Next, B7: “no binding (tested: 1 ug/ml (single concentration))”.
